Source: paper PMC10764318 (Nature Communications, 2024)
Changes are numbered by the printed parent chain.

B1: A19-61.1 (antibody, V domains shown)
VH: QVQLVESGGGVVQPGRSLRLSCAASGFTFSSYAFHWVRQAPGKGLEWVAVISYDGSNQYYADSVKGRFTISRDNSKNTLYLQMNSLRADDTAVYYCARDLAIAVAGTWHYYNGMDVWGQGTTVTVSS
VL: DIQMTQSPSSVSASVGDRVIITCRASQGISSWLAWYQQKPGKAPKVLIYDASSLQSGVPSRFSGSGYGTDFTLTISSLQPEDSATYYCQQAKSFPITFGQGTRLEIK
notes: control antibody, IgG1; also called antigen site F (Class III); source: Expi293F, purified; expressed as human IgG1
B2: WRAIR-5004 (antibody, V domains shown)
VH: QVQLVQSGAEIKQPGASVKLSCKASGYTFTTYYIHWVRQAPGQGLEWIGLISPYNGNRGYAQNFQGRVTITTDTSTSTGYMELSSLRSEDTAVYYCTRERVVAAAGYFDYWGQGVLVTVSS
VL: SYELTQPPSVSVSPGQTARITCGGDNIGSKNVQWYQQKPAQAPVLVIYDDSERPSGIPERFSGSNSGNTATLTISGVEAGDEAGYSCQVWDSSPDHYIFGAGTRLTVLG
notes: also called CoV_5004; source: Expi293F, transfected, purified (Protein A magnetic beads)
B3: WRAIR-5011 (antibody, V domains shown)
V domain 1: EVQLVQSGAEIKQPGASVKLSCKASGYTFTSYYIHWVRQAPGQGLEWIGLISPYNGNRAYAQNFQGRVTITTDTSTSTVYMELSSLKSEDTAVYYCAGEEYSNYGYFDLWGPGTPITISS
V domain 2: B2 VL with G84D, S86Y, P94G
notes: also called CoV_5011; source: Expi293F, transfected, purified (Protein A magnetic beads)
B4: WRAIR-5005 (antibody, V domains shown)
VH: QVQLQESGPGLVKPSETLSLTCAVSGSSVNSGYGWTWLRQPPGKGLEWIGYIGGGSGSTIYNPSLKSRLTISKDTSKNQFSLKLSSVTAADTAVYYCASLDYGTTYSWFDVWGPGVLVTVSS
VL: SYELTQPRSVSVSPGQMARITCGGDNIGSKSVQWYQHKPPQAPVLVIYADSERPSGIPERFSGSNSGNTATLTISGVEAGDEADYYCQVWDSSSDVLFGGGTRLTVLG
notes: also called CoV_5005; source: Expi293F, transfected, purified (Protein A magnetic beads)
B5: WRAIR-5020 (antibody, V domains shown)
VH: QVQLQESGPGLVKPSETLSLTCAVSGASISSYWWGWIRQPPGKGLEWIGRISGSSGSTSYNPSLKSRVTISTDTSKNQFSLKLSSVTAADTAVYYCASRITIFGLLRSYWGQGVLVTVSS
VL: EIVMTQSPATLSLSPRERATLSCRASQSVSSNLAWYQQKPGQAPRLLIYYASNRATGIPDRFSGSGSGTDFTLTISSLEPEDVGLYYCQQESNWPWTFGQGTKVEIKR
notes: also called CoV_5020; source: Expi293F, transfected, purified (Protein A magnetic beads)
B6: WRAIR-5021 (antibody, V domains shown)
VH: QVQLQESGPGLVKPSETLSLTCAVSGYSISSGYYWGWIRQPPGKGLEYIGYFSGTTGSTYYNPSLKSRVTISKDTSKNQFSLKLNSVTAADTAVYYCARQPPRFDVWGPGVLVTVST
VL: DIQMTQSPSSLSASVGDTVTITCRASQGISNFLNWYQQKPGKAPKLLIYDASRLESGVPSRFSGSGSGTEFTLTISSLQPEDFATYHCLQYDSDPFTFGPGTKLDIKR
notes: also called CoV_5021; source: Expi293F, transfected, purified (Protein A magnetic beads)
B7: WRAIR-5001 (antibody, V domains shown)
VH: QVQLVQSGAEVKKPGASVKLSCKASGYTFTSYSINWVRQAPGQGLEWMGWVNPSNGVTVYAQKFQGRVTMTRDTSTSTAYMELSSLRFEDTAVYYCARERDQLVVYFDHWGQGALVTVSS
VL: SYELTQPRSVSVSPGQTARITCGGDNIASKNVHWYQQKLAQAPVLVIYYDSDRPSGIPERFSGSNSGNTATLTISGVEAGDEADYYCQVWDSYSGHHVLFGGGTRLTVLG
notes: also called CoV_5001; source: Expi293F, transfected, purified (Protein A magnetic beads)
B8: LY-CoV-555 (antibody, V domains shown)
VH: QVQLVQSGAEVKKPGSSVKVSCKASGGTFSNYAISWVRQAPGQGLEWMGRIIPILGIANYAQKFQGRVTITADKSTSTAYMELSSLRSEDTAVYYCARGYYEARHYYYYYAMDVWGQGTAVTVSS
VL: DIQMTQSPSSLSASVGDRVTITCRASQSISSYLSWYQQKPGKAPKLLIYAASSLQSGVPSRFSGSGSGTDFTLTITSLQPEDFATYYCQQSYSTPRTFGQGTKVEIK
notes: control antibody, IgG1; also called antigen site E (Class II); source: Expi293F, purified; expressed as human IgG1
B9: CB6 (antibody, V domains shown)
VH: EVQLVESGGGLVQPGGSLRLSCAASGFTVSSNYMSWVRQAPGKGLEWVSVIYSGGSTFYADSVKGRFTISRDNSMNTLFLQMNSLRAEDTAVYYCARVLPMYGDYLDYWGQGTLVTVSS
VL: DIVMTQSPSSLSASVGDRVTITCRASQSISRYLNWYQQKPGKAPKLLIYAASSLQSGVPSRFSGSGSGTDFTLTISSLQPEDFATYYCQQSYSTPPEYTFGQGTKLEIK
notes: control antibody, IgG1; also called antigen site B (Class I); source: Expi293F, purified; expressed as human IgG1
B10: A19-46.1 (antibody, V domains shown)
VH: QVQLVESGGGVVQPGRSLRLSCAASGFTLSSYGMHWVRQAPGKGLEWVAVISYDGSNKYYVDSVKGRFTISRDNSKNTLYLQMNSLRAEDTAVYYCARGWAYWELLPDYYYGMDVWGQGTTVTVSS
VL: QTVVTQEPSFSVSPGGTVTLTCGLSSGSVSTAYFPSWYQQTPGQAPRTLIYGTNTRSSGVPDRFSGSILGNKAALTITGAQADDESDYYCVLYMGRGIVVFGGGTKLTVL
notes: control antibody, IgG1; also called antigen site D (Class II); source: Expi293F, purified; expressed as human IgG1

Experiments:
[1] = target: T1, SARS-CoV-2 RBD (318-514), Avi-tagged, biotinylated (SARS-CoV-2, UniProt P0DTC2, biotin (BirA biotinylation kit)); experiment: BLI; conditions: both partners purified
T1 construct: source: Expi293F, purified (Ni-NTA); biotinylated with the BirA kit

[2] = target: T2, SARS-CoV-2 WA-1 RBD (SARS-CoV-2, UniProt P0DTC2 331-527); experiment: BLI; conditions: both partners purified
T2 construct: source: Expi293F, purified (Ni-NTA)

Binder | binding result [1] | Kd [2] | koff [2] | kon [2]
B1 | binds | – | – | –
B2 | – | 0.72 ± 0.015 nM | 0.000154 s⁻¹ | 199000 M⁻¹ s⁻¹
B3 | – | 0.69 ± 0.013 nM | 0.000147 s⁻¹ | 215000 M⁻¹ s⁻¹
B4 | – | 1.14 ± 0.013 nM | 0.000238 s⁻¹ | 209000 M⁻¹ s⁻¹
B5 | – | 13 ± 0.1 nM | 0.00273 s⁻¹ | 210000 M⁻¹ s⁻¹
B6 | – | 1.09 ± 0.007 nM | 0.000353 s⁻¹ | 325000 M⁻¹ s⁻¹
B7 | – | – | 0.000119 s⁻¹ | 209000 M⁻¹ s⁻¹
B8 | binds | – | – | –
B9 | binds | – | – | –
B10 | binds | – | – | –
